In a protein production outcome set (Wang et al. 2014):

Assay: label from the status in PepcDB records
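Further: failed if final PepcDB status was selected cloned or expressed and not failed if soluble or beyond.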

Row | Sequence | protein production
1 | MSIEPVFILVRPQMGENIGAAARAMLNFGLGRLRIVDPRDGWPNPKAVAMASGAGRLLDHAGLFPTVAEAIRDCDYVFATTARGRELTKPVMTPERAMAHGRALTGEGRRVGILFGPERTGLENEDVALANAIVTVPVNPEFFSLNLAQCVLLLAYEWRRQHDETPPEVIDMARVDFASGLEVEKLGDHFEEKLEAAGFFFPPEKAPGMKLNLRNMWARLPLTRADVQTLHGMLRQIAWKLKQ | not failed
2 | MIRAAAKFSREAAATIRGRTISVRGNLIRYSTPLRLIHGEISVPNANHVAIQMVNYALSHARSQKSDESYAQGMLVLEQCLGNQPNDDQVSHDSKATVLLAMSDLLYESGNSSEAIERLKQVMTLTHSSLAIRVVAVEALVGLLIQSGQDDASLDVADEFLKLVKESGHENLQGVVATVKAIKGLAELVKGNIESAESLFRGLENHESCKGNIALSYGEYLHATGNFELAKEMYQKAIQGVTETKESMCSCNMNLKAVSLAATFALGQLESHIGNFGVAEKTLTDALTKTEEHYGDNHPKVGVILTAVALMYGNKAKQERSSSILIQEGLYRKALELMKAPPLDSKGIINMENQEVIALARAGYAELLLIQENRKSEGEKMKSWAESAWRNKRISLSEALTLSEPLGKVAIIDARTTRVL | failed
3 | MSFVTTQPEALAAAAANLQGIGTTMNAQNAAAAAPTTGVVPAAADEVSALTAAQFAAHAQMYQTVSAQAAAIHEMFVNTLVASSGSYAATEAANAAAAG | failed
4 | MSVSPSPFNGAEHPIKGIALICLAVLLFASHDTLSKYLSAFYPIVMVVWARYVVHTLLMLVVFVPRSGFSAVVRTKRPGLQLLRALCLIGTSLLFTTGLRYIPLAEATAVNFLAPLLVTALSVPFLGERVSRAQWLAVLAGFVGVLIVVRPGGALFTPAILLPLGSALCFGFYQLLTRKLSGVDSPTTSNFLTGILNSLIMSALLPFFWSTPTLVHGLFMIGLGTCGMLGHMLLTQAFRHAAPAMLAPFSYGQILFAGLFGYLIFDHTPDQYALVGIAVICLSGLAVAWAQRKR | failed
5 | IDKKLTTLADLFRPPIDLMHKGSFETAKECGQMQNKWLMINIQNVQDFACQCLNRDVWSNEAVKNIIREHFIFWQVYHDSEEGQRYIQFYKLGDFPYVSILDPRTGQKLVEWHQLDVSSFLDQVTGFLGEHGQLDGLSSS | not failed
6 | MGTKRIGILTSGGDCPGLNAVIRAVVKASALKGWEVYGIPYGTDGFVEVAHGKYQAEDLLLTKHGYALPGMLKGLDVLQFLSGSVLGSLSKGHPEQPAIAEAILKGYAILDLEALIVIGGDGSLDIIYDLAQKGNWHIIAIPKTIDNDVPFTDLAVGFSTAVDIVTQALYDLTFTAASHERIIIVQVMGRDAGHLTLHAGIAGGADIILIPEITPCLTSEIIRNCCYQLMNLRKSGRHFALIVISEGVHDQNNKKNKHIADYLAEEISETSQHLCDIKDPAFCDLISLDIRATTLGHLQRSGTPLSFDRLLATVFGIRAVELIEQEIYDQVVIWRSGKVEHADLKPIISIIKECHQENRCPFPVDRDGFMVKTAKSLGIYLGED | failed
7 | MNGKLNLPINTVIGVSLLVLLLVPALYFAKPVLLPMVISTFVALLFSPLINYFEDKGLPRTITVVVTLTLLVSVSILGLAAISEPAKQWWAELPSIVQNVSQEVNEVTKASSEHMNAPLELASDMNIDEMGNNTVFSLLKALATTTPTLLTQAMIVLFMVYFMLNHGRSLFRKSVSRLRGFSKQRQAVELVQALQKDLSRYIGTITLVNAGLGLCVGLVFFVLGLEDPFLWGAFAGVMNFAPYLGPVISMASFGFVAYLQLDSVSFMLTVVSIYLLLNLIESQFVTPTLLGRRFNLNPLVIFMWLVFWGWLWGGMGLLIGVPLLVCINILADRLALCGSTNI | failed
8 | MAHIEKVPQRPGFSWRYRRIDEVEKEYDLHFHDDVFELVIHRHFTGSLHIGHHELEVTHNQMLLIAPGVPHSIHSTLVESKCETHVIWFKREWIANLMFYCAELRKLDPLLKAANKGVVFSERTAQHVVDLLHELMTFPAMEQLSRFLHVLSLIAHDEGAKTLMTHSYLSMSEHELQERERVASVNAYLEQHFATKVTLADLANYLSLSESAVTRLFQKHFKEPFSQRLMKLRINHAADLLQSTSLPIGIVFERVGYRNQALFNRHFKTYKGLTPRDYRQHYQQRIQP | failed
9 | MLPAYIKIHDAIKKEIDKGTWKIGQRLPSERDLADDYSVSRMTLRQSITLLVEEGILERRVGSGTYVASHRVQEKMRGTTSFTEIVNSQGRKPSSKLISFQRKLANETEIQKLNLSQSDYVVRMERVRYADKVPLVYEVASIPENLIKGFEQSEVTEHFFKTLTENGYEIGKSQQTIYARNASERVASHLEVNAGHAILALTQVSYFTDGKPFEYVHGQYVGDRFEFYLENN | failed
10 | MQSFFDREFTFDRTARLFFIILLVGGIMAIVIGLRGILIPFCLSWILAYVLMPLVRFVQYRLHFRFRFLSVITVLVFISALIFFAILSLVPAVEEEVSKTITLLQQYRIDENLLQMLPAPIRKFLSESGSMNDLFKGISYEKLMENSKEIFGQLNKLVSGTISLFSYTTIFFIGVLYFIFILFDFEKLGKGFVNLFPVGHRIRVRSILKEVDKNMNSYFRGQALIALCVGILLSIGYKIIDFPLGVTLGLFIGMLNLIPYLQIVGLIPIVFLSVLKAAQTGQNFFVVLALGIGVMMIVQVIQDTILTPNIMGKRMGMSPAMILLSISIWGSLLGFFGLFIALPLTMSLYSVYKRYVIQDPKFIREENEETMPKKGLFRKHSRKEEK | failed
11 | MKVRAIKSFLVTTMAMTFLVSMGQGSILTKANTINNMKYVTEAFGAIPTEEQVSYQKEELTAFIHFGVNTFTGREWGDGTENPEIFNPTNLDADQWVKTLADAGFGRVILTAKHHDGFCLWDSAYTKHDVASSPWKNGKGDVVKEVSEACAKYNIKFGVYLSPWDQNSEHYGEGNGGDYNEFYMNQLRELLTNYGPIAEVWMDGAKGSNVKQEYNFEEWFALIKELQPECLIFSPQGPDIRWIGNEKGYAGEPCWSTIDIEKMKERENPTYLNNGEEGGPDWVVGESDVSIRPGWFYHESQDNEVKSLEKMMDIYFKSIGRNSVLLLNVPPNKEGKLHENDVNRLKEFGETIKELFNDDLALNKEVIVDGFANRDETYGANKIVDGDYDTYWAPDNSSKTGTIEIDLGESKEFDVISLQEYIPLGQRVSSFNVEVLQGENWNKVYEGKTIGYKRLVRIAPTKGEKIRINITGSLEVPLINNVGVYKQPTSIELPSGPPAGLKVLNDDNKGNELEQFNFSDGWVYETIHGENDLGGDAHYTSKTNATVNIKFNGTKFFLSGTKDSGHGIMEISIDGENPVEVDLYSPNRKSKEIVFESEDLSDGEHEVTVKCTGRKNSSSRGTAAHIDGAYVLDNGGKGMVEFEKVGYEVSENIGTATFKVIRKGGSNGKLEVNYDTLAGTALNGVDYQTWSGTLAFNEGETEKTFDITIIDDKEKEEPKEFYLKLSDPIGGILGFNSRATVTINDDEQIK | failed
12 | MNKERGMKGTCLCGAIEVIAEPKNEVSLCHCSMCRKWSSGALHAVHCGPEVTFKGAEPKRYQSSDWAVRGFCGECGTNLFYHLLPTNEYILSAGLFDNPDFKLTLEIFTDEKPGYYELNPHSKKMTAQEVYDQFVPKE | failed
13 | MGHHHHHHSHSGNIRLETAAETQAFAEELGRHLEAGDVIILDGPLGAGKTTFTQGLARGLNVKGRVTSPTFVIAREHKSLSGGPSLVHVDAYRLIDDAAGATDPIGALDSLDLETELEDAVVVAEWGGGLVEQITDSYLLITFDRT | not failed
14 | MNPALVALGLTLFAGMATGIGSAIAFFARRTNFRFLSVATGFSAGVMVYVSFVEILPKGLDSLVRSCGESWGHWLNAASFFGGMLCIGLIDAVIPAAKNPHEIHADHEIAPLHDRSAPLPDFGSLAADPRCAPTGTHDHRPPQRHLLRMGLFTALAITIHNFPEGMATFLAALESPRVGAAIAVAIALHNIPEGVSVSVPIFYATGNRRKAFALSLLSGMAEPVGAAIGYLALLLFSGGASGAIPDQVTGALFGGVAGIMVYISLDELLPASRAYGKGHDSLLGLVGGMAVMALSLLLMK | failed
15 | EQQADGTWLMDGWISIRKASNLLEHDLVDEAERYSTLGGYLLWQFGYIPAAGEQITVDGLIFEIVSVNKHNIGKVRVHRTQPENE | not failed
16 | MSKHKFMIYFLTTTLVLPTFTTSIAHAEDTNEDDKMKSSSTQEEQTNHNEDVNDNNTNEASQPDDTQSDNTSSEAPTKEDSKNKIKREKSKSSNTSSEEKDDDNTSVSRSHQKRDKDTNNTYRTPLSPIFDATHSSGLPASNFLNPDLYQNGFSLTHLIASLFNFDSDISDYEQPASTNETDDDTHSTNEQDTDSQDQDQTEHSASSSDTTNREHDDVQQSSEKANQSDKTSRQDEIDTKQQSTANQDKDDASVSKALDAIDDFVSDETDDDKDNQGSNNTDTTNHQSYNDDTSTDSKNDSSKTSSSDSNSLSESALDTVLDKYSEDAKKTHQDFESSKKDNETNTSKGEKTKNNTTKASNPQLPTKKELEHKTTPAQSFEDDFKQSNTRSTSLFQTLPQLNGSDVTDGDITVVENKGTRDFIKSIAKDAHKIGQDKDLYASVMIAQAILESSSGNSTLAQAPNYNLFGIKGSYKGQSVNFNTLEAGSDNSMFSINAGFRKYPSTKASLEDYADLIKNGIDGNPTIYKPTWKHEAIDYRDATRHLSRTYATDPNYATKLNSLIKHYHLTDFDKKKMPDLDRYAKQTSSGEDASGSEFKSFEITDSSSPYPQGQCTWYVYERVQQFGKKVGSDWGDAHNWDNRAESDNYDVSQTPSTHSAVVFEAGQAGAHDIYGHVAFVEKVNKDGSIVISESNVKGLGIVSYRTIDASTAEDLHYIEPK | failed
17 | MDFDYTIKALKTKKKLDAKPNTHTDFVYTTKALRSRKKLDTKPNIHTDFGYAIKAWRSKKKLDIVLESNMTRYMCMIEYKN | failed
18 | MEQLAKLSMTDRLTGLLNRGTWENLVDAEYERFRRYGQATSLVMFDIDHFKPVNDTYGHLAGDEVIRHTADVTRNNIRQSDSAGRYGGEEFGIILPETDAESARVICERIREAIEKSTVSTSAGDIQYTVSMGIAQLTETPENYMQWMQKADEALYKAKESGRNKVVVSLEHHHHHH | not failed
19 | MSGGLVALLDDVAALARIAAASVDDIAAGAAKAGAKAAGVVIDDAAVTPQYVSGADPSRELPMIKRIFWGSLRNKLLIILPALLLVSAFIPGVIPFILMLGGTYLCYEGAEKVWHKLRGHSATEKAPAVQRGPEAEAKVTKGAITTDFILSCEIMVIAMNEVADESLWVRALILVVVAFVITVVVYGAVGLIVKMDDIGLHLTTKASSGSQRFGRLLVKGMPAVLAAITLIGTIAMLWVGGHIMLQGAYDLGWHAPYDLVHVLETPFAGIPVAGGFLAWLVNTLCSAILGAVWGLVIMVILHPLLKVLPFGKKHEGHEEGDVRAAIAGYRPAKSKPTR | failed
20 | MASGQFVNKLQEEVICPICLDILQKPVTIDCGHNFCLKCITQIGETSCGFFKCPLCKTSVRKNAIR | not failed
21 | MEQFSFIACMPDIPGALHRAAEIITRYEGNINRIQYDRRIDLHTVFFEVTALPQAYEKIREELEKIGYLQTSLQPVAFVKFHVYLPNCPGALFDLLNYITSSKSSITFLDFDDRGQHPERLVVGLHIEDPNMIDALLNQLKSRYRLDILEYDTTGEKLDDTVFYLRLAQKLRSFIGSAEDDFLMRFLQDINHITQELSNLQKDPIEVFENILKVGDYLNRTSGDNFYADVQRVRIKDDIELFCFQPPCGGNIYLFDTSSERVMIDTGYGIYFQDIVNMLQYYGLGDLSRLKRIYITHADADHCGAAGCFPAPSYLNRETFLITRETSRAYGSSNQDCILEEVYTKIINLFSRFTPPSNTVLFPEVSLSDKIIEKRGVFPIIARFRIGDLKFEVLEGMGGHMHGEVFYFCPEEGLLFPEDAVINFKSLSPDRTAYNVLADYLMTSVNVDSKLAREERQSLLSLISEIDEQLARKNKKCLICCGHGSMSLLDNGKLIEYKGSERYVAGQKCISQENL | failed
22 | MAAKLEKTTNSFEVITREWYAKFSPTWNESHGERIIRRFERDIFPWIGSKPISEIAAPELLATVRRIESRGAVETAHRALGNCGQVFRYAIATARATRDISADLRGALPPVKGEHLEHHHHHH | not failed
